Paper PMC6563288

Target: VP1(289A)-Flag (enterovirus A71 (C4))
Assay: co-IP

Vimentin (VIM) (from UniProt P08670 1-466) (natural protein)
fold VIM pulled down, against VP1(289T)-Flag: 1.6 fold
